Data on two molecules can be found in doi:10.1101/2021.10.29.466484, “Clamping of DNA shuts the condensin neck gate” (bioRxiv, 2021).

B1: Ycs4 (natural protein, S. cerevisiae)
chain: MSGFSLSEYLTKFQTTDRESYPRLQDPSRELNVIIDQLAVSPEQIDASPDSLEALIDLCHDFPHLTPKLQTQLSYLISSSLSNLSKDIKANLSSNVNFTEIGGLIPQWKRHLEEYGYLIQVLLTFLQDELHKVSSQSTNLNRSAKNSKNDSANVELFKRDCNQMENLLESITKLLEINLSKIFQTTPEKDLFIGLFTRPLFVLLEIEPVTKVSSLKMFIQRILAMCVKNHGQSSSIQSSLMTNLTYFLHLSVFNAELLKLLNDEYNYPQLTEDILKEISTRVFNAKDTTGPKAISNFLIKLSELSPGIMLRQMNLVITLLNNSSITLRCSVVEACGNIVAELAQDPQTMEHYKQQIAVLIELLEERFQDSNPYVRTKAIQGCSKICDLSSKFNKSKAKFTSLAVRSLQDRSSLVRRNSVKLLSKLLLKHPFKAIHGSQLRLSEWEEYLKGSESQLNSTLKKVESQETLNDTIERSLIEEEVEQDEGQCRTELEGSFNKSAELSRIENEVENINATNTSVLMKLKLMIVYYKDAISFIKEIHKSIELISNLLFSKNRNEVLESMDFLVLADAFDIELSEFGIKKMLHLVWMKGTNDEGTSISVHLIECYKQLFLTAPDSCNMQEKAAHIAKNLINLSIGASIADLASLEQLLGMMYEQKLIDQHVINILWAIYNSASKASMQKEQNVNNRDSEKGFSKEQIHGSIIILGMLSLADNEIALKGLESLLNIGLGAVGLKDLTLCRYSCLALERMVPKRSTIITKAINQELEDVAVKKLYAIIINYTKDNEYYPMCEQALSALFTISSKPDILATDLIREKTMMTFGKPEEEDSILSLEQSSRVVSLSQLLFIVGQVAIKTLVYLEKCEAEFKKRKIEAETRNGKVKNQGADVTNTTQDNGGDKELEMIGGTNEDDFTDAIQFVKENELLFGEKSILGKFCPIVEEIVSNSSRFSDPMLQRTATLCLEKLMCLSSKYCEKSLPLLITVMEKSPDPTIRSNAVLGLGDMAVCFNNLVDENTDYLYRRLHDENLMVQRTCLMTVTFLILAGQVKVKGQLGEMAKCLDNPDQGISDMCRLFFTELASKDNAIYNGFIDIFSNLSSDDLLGKESFKKIIKFLLTFIDKERHQKQLNEKLVGRLRKCETQKQWDDIAFVLNNLPYKNEDVTALLEQGFKVVSAKE
notes: Ycs4, HAWK subunit of budding yeast (S. cerevisiae) condensin, wild type
B2: Smc2 (natural protein, S. cerevisiae)
chain: MKVEELIIDGFKSYATRTVITDWDPQFNAITGLNGSGKSNILDAICFVLGIASMSTVRASSLQDLIYKRGQAGVTKASVTIVFDNTDKSNSPIGFTNSPQISVTRQVVLGGTSKYLINGHRAPQQSVLQLFQSVQLNINNPNFLIMQGKITKVLNMKPSEILSLIEEAAGTKMFEDRREKAERTMSKKETKLQENRTLLTEEIEPKLEKLRNEKRMFLEFQSTQTDLEKTERIVVSYEYYNIKHKHTSIRETLENGETRMKMLNEFVKKTSEEIDSLNEDVEEIKLQKEKELHKEGTISKLENKENGLLNEISRLKTSLSIKVENLNDTTEKSKALESEIASSSAKLIEKKSAYANTEKDYKMVQEQLSKQRDLYKRKEELVSTLTTGISSTGAADGGYNAQLAKAKTELNEVSLAIKKSSMKMELLKKELLTIEPKLKEATKDNELNVKHVKQCQETCDKLRARLVEYGFDPSRIKDLKQREDKLKSHYYQTCKNSEYLKRRVTNLEFNYTKPYPNFEASFVHGVVGQLFQIDNDNIRYATALQTCAGGRLFNVVVQDSQTATQLLERGRLRKRVTIIPLDKIYTRPISSQVLDLAKKIAPGKVELAINLIRFDESITKAMEFIFGNSLICEDPETAKKITFHPKIRARSITLQGDVYDPEGTLSGGSRNTSESLLVDIQKYNQIQKQIETIQADLNHVTEELQTQYATSQKTKTIQSDLNLSLHKLDLAKRNLDANPSSQIIARNEEILRDIGECENEIKTKQMSLKKCQEEVSTIEKDMKEYDSDKGSKLNELKKELKLLAKELEEQESESERKYDLFQNLELETEQLSSELDSNKTLLHNHLKSIESLKLENSDLEGKIRGVEDDLVTVQTELNEEKKRLMDIDDELNELETLIKKKQDEKKSSELELQKLVHDLNKYKSNTNNMEKIIEDLRQKHEFLEDFDLVRNIVKQNEGIDLDTYRERSKQLNEKFQELRKKVNPNIMNMIENVEKKEAALKTMIKTIEKDKMKIQETISKLNEYKRETLVKTWEKVTLDFGNIFADLLPNSFAKLVPCEGKDVTQGLEVKVKLGNIWKESLIELSGGQRSLIALSLIMALLQFRPAPMYILDEVDAALDLSHTQNIGHLIKTRFKGSQFIVVSLKEGMFANANRVFRTRFQDGTSVVSIM
notes: Smc2, SMC subunit of budding yeast (S. cerevisiae) condensin, wild type; Expressed from pGAL10-SMC2 together with the other subunits; Only the head domain and proximal coiled coil are resolved in the maps

Holding throughout (conditions): both partners purified
Experiment [1] concerns the target T1, Smc4 (S. cerevisiae, UniProt Q12267 1-1418).
T1 construct: Smc4, SMC subunit of budding yeast (S. cerevisiae) condensin, wild type; Only the head domain and proximal coiled coil are resolved in the maps; also called SMC4-3xStrepII
T1 sequence: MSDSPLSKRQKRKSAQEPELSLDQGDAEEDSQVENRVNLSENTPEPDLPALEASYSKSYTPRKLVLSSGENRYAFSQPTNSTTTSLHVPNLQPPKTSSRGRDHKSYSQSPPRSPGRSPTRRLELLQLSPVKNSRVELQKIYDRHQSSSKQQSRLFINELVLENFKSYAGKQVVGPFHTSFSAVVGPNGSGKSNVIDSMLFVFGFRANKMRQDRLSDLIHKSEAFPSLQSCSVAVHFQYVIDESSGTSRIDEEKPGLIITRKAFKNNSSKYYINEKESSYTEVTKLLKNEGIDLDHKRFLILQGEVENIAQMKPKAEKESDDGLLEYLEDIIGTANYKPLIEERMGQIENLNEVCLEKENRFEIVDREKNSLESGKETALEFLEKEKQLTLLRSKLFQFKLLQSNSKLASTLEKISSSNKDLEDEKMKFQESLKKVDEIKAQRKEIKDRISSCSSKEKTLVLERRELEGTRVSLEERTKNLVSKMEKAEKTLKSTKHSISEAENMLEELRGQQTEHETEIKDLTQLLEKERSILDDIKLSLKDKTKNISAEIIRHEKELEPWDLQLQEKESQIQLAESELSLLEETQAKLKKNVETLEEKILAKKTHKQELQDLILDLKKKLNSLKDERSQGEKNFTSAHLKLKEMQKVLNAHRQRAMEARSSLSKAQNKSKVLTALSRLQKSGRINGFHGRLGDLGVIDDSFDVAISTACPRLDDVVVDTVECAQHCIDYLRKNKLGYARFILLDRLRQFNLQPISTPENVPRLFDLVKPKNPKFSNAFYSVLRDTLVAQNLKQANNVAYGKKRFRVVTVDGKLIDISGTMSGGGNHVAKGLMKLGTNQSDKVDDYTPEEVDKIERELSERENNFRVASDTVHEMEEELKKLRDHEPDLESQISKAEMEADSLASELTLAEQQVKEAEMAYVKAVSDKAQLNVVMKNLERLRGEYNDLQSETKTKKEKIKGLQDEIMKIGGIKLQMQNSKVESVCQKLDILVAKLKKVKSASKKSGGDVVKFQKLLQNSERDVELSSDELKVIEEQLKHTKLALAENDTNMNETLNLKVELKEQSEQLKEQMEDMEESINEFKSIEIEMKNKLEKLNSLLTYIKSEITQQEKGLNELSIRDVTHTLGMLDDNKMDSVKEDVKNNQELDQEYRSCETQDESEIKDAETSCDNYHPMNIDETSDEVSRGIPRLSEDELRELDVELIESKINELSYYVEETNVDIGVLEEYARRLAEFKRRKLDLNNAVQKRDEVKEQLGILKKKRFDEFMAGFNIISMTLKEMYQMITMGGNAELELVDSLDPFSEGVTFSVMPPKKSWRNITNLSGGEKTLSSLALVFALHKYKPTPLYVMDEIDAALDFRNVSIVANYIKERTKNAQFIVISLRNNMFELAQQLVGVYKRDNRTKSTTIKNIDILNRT
Kind of experiment: cryo-EM structure; condensin pentamer (Smc2, Smc4, Brn1, Ycs4, Ycg1) with 80 bp dsDNA, ADP and BeF3; separate maps of the head module and of Ycg1-DNA from one dataset.

For experiment [2], the target named is T1, Smc4. Kind of experiment: cryo-EM structure; condensin tetramer (Smc2, Smc4, Brn1, Ycs4) with 80 bp dsDNA, 5 mM ADP, 1 mM BeSO4, 10 mM NaF; TNT buffer (30 mM Tris/HCl, 60 mM NaCl, 1 mM TCEP, 2 mM MgCl2, pH 7.5); head module, Forms I and II.
The experiment “Ycs4” concerns the target B1. The experiment is described as follows: cryo-EM structure; condensin pentamer (Smc2, Smc4, Brn1, Ycs4, Ycg1) with 80 bp dsDNA, ADP and BeF3; separate maps of the head module and of Ycg1-DNA from one dataset.

As for B1, the binding result in the experiment with Smc4 [1] is given as “binds”.

Regarding B2, the binding result with Smc4 [2] and in the experiment with Ycs4 was “binds” each time.
